Assay [1] has as its target Pyruvate kinase M2 (PKM2), endogenous in NIH-3T3 cells (mouse (endogenous in NIH-3T3)) (UniProt P52480). As to the kind of experiment: cross-linking.
The target of assay [2] is Pyruvate kinase M2 (PKM2), endogenous in U251-iUS28 cells (human (endogenous in U251)) (UniProt P14618). Briefly: cross-linking.

Pyruvate kinase M2 (PKM2), endogenous in NIH-3T3 cells, P52480 1-531 (enzyme; other documents disagree on this pair), sequence (P52480 whole entry): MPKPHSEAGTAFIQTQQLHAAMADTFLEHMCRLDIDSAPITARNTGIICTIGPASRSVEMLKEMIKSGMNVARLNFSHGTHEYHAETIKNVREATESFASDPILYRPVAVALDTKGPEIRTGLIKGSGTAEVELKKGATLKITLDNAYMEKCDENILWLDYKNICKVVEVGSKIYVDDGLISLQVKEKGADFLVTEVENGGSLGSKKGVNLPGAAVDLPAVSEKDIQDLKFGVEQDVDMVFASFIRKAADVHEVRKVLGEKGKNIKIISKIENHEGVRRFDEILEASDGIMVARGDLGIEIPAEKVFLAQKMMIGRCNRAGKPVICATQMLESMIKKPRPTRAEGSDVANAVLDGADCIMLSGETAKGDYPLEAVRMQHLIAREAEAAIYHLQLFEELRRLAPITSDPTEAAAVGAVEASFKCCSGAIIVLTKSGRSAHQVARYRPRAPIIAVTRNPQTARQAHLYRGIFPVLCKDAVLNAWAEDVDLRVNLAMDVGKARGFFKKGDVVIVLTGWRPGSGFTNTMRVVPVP
Pyruvate kinase M2 (PKM2), endogenous in U251-iUS28 cells, P14618 1-531 (enzyme; other documents disagree on this pair), sequence (P14618 whole entry): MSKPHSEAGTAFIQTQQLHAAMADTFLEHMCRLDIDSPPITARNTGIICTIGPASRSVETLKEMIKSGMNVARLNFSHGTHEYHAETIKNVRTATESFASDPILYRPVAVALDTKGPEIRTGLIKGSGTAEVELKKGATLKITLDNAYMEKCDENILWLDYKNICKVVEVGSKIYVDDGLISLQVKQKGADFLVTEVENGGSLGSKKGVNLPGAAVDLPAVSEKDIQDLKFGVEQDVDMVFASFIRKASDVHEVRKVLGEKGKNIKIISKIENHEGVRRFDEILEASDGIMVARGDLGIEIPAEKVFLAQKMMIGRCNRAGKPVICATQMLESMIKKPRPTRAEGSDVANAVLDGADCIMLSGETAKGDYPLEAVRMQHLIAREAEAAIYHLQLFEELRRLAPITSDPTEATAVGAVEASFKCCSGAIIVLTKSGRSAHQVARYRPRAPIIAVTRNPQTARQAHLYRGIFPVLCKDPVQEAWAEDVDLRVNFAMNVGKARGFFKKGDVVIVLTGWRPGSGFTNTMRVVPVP

As for “Pyruvate kinase M2 (PKM2), endogenous in NIH-3T3 cells, P52480 1-531 (enzyme; other documents disagree on this pair)”, the stoichiometry N (commonly a count of units in the complex or per binding partner) in assay [1] worked out at 2.

Consider “Pyruvate kinase M2 (PKM2), endogenous in U251-iUS28 cells, P14618 1-531 (enzyme; other documents disagree on this pair)”, for which, in assay [2], the stoichiometry N was 2.

Values taken from PMC5356532.
